From publication PMC11506546, “Tropomyosin Isoforms Segregate into Distinct Clusters on Single Actin Filaments” (Biomolecules, 2024)
Each block holds one binder with its values, some of them ahead of it.

How the values were obtained:
Settings in all cases: both partners purified
[1] = target: β-actin filament (cytoskeletal actin, polymerized from G-actin) (UniProt P60709 1-375); test: TIRF microscopy of tropomyosin-decorated single actin filaments; control experiments: the same Tpm isoform labeled with AF488 and with AF568 (0.015 µM of each) mixed with 1 µM G-actin in D buffer, polymerized with 50 mM NaCl for 5-10 min, 10% PEG 300; decorated filaments captured on PLL-PEG/BSA coverslips in microfluidic channels, washed with TIR50 buffer
[2] = target: α-actin filament (muscle actin, polymerized from G-actin) (UniProt P68135 1-377); test: as above
[3] = target: rabbit skeletal-muscle F-actin (rabbit, UniProt P68135 1-377); test: co-sedimentation; 0.2-3.5 µM tropomyosin with 3 µM F-actin in T buffer (150 mM NaCl, 10 mM Tris-HCl pH 7.5, 2 mM MgCl2), 50 µL, 1 h at room temperature; 670,000 x g, 20 °C, 30 min; SDS-PAGE densitometry; Hill equation fit; apparent Kd

ratio of Tpm in Ch1 (red, AF568)/Ch2 (green, AF488) on the filament, median [1]: 0.7
ratio of Tpm in Ch1 (red, AF568)/Ch2 (green, AF488) on the filament, median [2]: 0.7
Kd [3]: 2370 nM
B1: Tpm1.6 AF568 (Tpm1.6 labeled at Cys-190 with Alexa Fluor 568 C5 maleimide) (natural protein)
chain: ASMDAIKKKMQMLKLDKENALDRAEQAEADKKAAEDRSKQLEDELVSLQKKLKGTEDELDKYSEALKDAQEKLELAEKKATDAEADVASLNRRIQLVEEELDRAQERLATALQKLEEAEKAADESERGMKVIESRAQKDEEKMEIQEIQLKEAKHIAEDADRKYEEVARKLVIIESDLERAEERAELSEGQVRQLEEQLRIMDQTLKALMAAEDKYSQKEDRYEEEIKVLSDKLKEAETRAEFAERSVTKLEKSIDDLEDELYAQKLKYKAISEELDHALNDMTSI
modifications: Alexa Fluor 568 C5 maleimide on Cys-190 (monomer labeling ratio approximately 95%)

Kd [3]: 1210 nM
B2: Tpm1.6 AF488 (Tpm1.6 labeled at Cys-190 with Alexa Fluor 488 C5 maleimide) (natural protein)
chain: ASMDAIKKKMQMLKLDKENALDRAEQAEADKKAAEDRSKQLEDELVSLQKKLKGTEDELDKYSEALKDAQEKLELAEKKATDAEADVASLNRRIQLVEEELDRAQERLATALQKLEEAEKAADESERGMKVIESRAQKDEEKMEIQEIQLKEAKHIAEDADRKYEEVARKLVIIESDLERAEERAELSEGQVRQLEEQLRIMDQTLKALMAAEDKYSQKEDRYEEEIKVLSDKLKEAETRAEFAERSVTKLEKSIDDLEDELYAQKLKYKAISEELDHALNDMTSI
modifications: Alexa Fluor 488 C5 maleimide on Cys-190 (monomer labeling ratio approximately 95%)
